Results on one molecule are retold here after publication PMC9117644 (Frontiers in Bioengineering and Biotechnology, 2022).

The target of the test is T1, human TLR4 ectodomain (S2-derived) (human, UniProt O00206 23-629).
T1 construct: human toll-like receptor 4 ectodomain, UniProtKB O00206, P23-M629, Drosophila codon-optimized; Cloned into pExpreS2-1-CRPA (Addgene #175445): N-terminal BiP signal peptide for secretion, C-terminal thrombin-cleavable Protein A tag; a few residues of the thrombin site probably remain after cleavage; also called toll-like receptor 4; Drosophila-derived TLR4; source: purified (IgG Sepharose, …)
Kind of test: SEC; analytical SEC, Superdex 200 Increase 30/100 on a Dionex Ultimate 3000 UHPLC; 100-µl injections of 200 µg TLR4, 400 µg MD-2, or 200 µg TLR4 + 400 µg MD-2; A280 traces. Conditions: both partners purified.

T1 sequence (O00206 23-629): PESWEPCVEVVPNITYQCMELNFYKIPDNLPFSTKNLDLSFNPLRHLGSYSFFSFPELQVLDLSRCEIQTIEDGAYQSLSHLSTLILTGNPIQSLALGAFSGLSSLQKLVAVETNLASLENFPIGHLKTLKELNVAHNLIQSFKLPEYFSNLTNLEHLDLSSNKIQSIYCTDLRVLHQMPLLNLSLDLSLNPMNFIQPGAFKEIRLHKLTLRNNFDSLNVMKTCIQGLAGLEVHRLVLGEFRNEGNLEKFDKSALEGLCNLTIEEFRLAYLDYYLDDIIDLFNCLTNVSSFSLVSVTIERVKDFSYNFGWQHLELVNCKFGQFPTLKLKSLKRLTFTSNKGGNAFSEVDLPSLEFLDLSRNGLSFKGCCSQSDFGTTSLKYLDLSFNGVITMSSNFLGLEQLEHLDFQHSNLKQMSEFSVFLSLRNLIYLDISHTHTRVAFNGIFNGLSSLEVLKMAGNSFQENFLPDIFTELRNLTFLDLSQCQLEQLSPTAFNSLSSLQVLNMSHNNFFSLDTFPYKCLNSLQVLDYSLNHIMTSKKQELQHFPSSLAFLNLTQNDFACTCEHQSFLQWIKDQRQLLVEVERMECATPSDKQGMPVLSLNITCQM

B1: human MD-2 (S2-derived, Protein A tagged) (natural protein, UniProt Q9Y6Y9 19-160, looked up)
chain: QKQYWVCNSSDASISYTYCDKMQYPISINVNPCIELKRSKGLLHIFYIPRRDLKQLYFNLYITVNTMNLPKRKEVICRGSDDDYSFCRALKGETVNTTISFSFKGIKFSKGKYKCVVEAISGSPEEMLFCLEFVILHQPNSN
notes: human lymphocyte antigen 96 (MD-2), UniProtKB Q9Y6Y9, Q19-N160, Drosophila codon-optimized; Cloned into pExpreS2-1-CRPA (Addgene #175445): N-terminal BiP signal peptide for secretion, thrombin site and Protein A at the C-terminus; the tag was routinely left on for stability; also called lymphocyte antigen 96; source: purified (IgG Sepharose, SEC); not shown: Protein A, C-terminal, kept
Regarding B1, the binding result is recorded as “binds”.
